The labels stand for the following.
B1: vIRF4^153–256/Δ202–216 (domain or fragment)
chain: SDTREQSYEEAGAAAPAPPKAPSGLRGRPRKSNRYYNVGDITTEQKAACGSSGTRQVTQASSFTWRVPGDPPAPSTLTGPSDPHSSGAG
B2: vIRF4^153–256/Δ202–216/Δ237–256 (domain or fragment)
chain: SDTREQSYEEAGAAAPAPPKAPSGLRGRPRKSNRYYNVGDITTEQKAACGSSGTRQVTQASSFTWRVPG
B3: vIRF4^153–216 (domain or fragment)
chain: SDTREQSYEEAGAAAPAPPKAPSGLRGRPRKSNRYYNVGDITTEQKAACSVWIPVNEGASTSGM
B4: vIRF4^153–256 (domain or fragment)
chain: SDTREQSYEEAGAAAPAPPKAPSGLRGRPRKSNRYYNVGDITTEQKAACSVWIPVNEGASTSGMGSSGTRQVTQASSFTWRVPGDPPAPSTLTGPSDPHSSGAG

For this test, the target named is HAUSP^62–205 (HAUSP TRAF domain) (UniProt Q93009 62-205). Put plainly: ITC.
Chain of HAUSP^62–205 (HAUSP TRAF domain) (Q93009 62-205): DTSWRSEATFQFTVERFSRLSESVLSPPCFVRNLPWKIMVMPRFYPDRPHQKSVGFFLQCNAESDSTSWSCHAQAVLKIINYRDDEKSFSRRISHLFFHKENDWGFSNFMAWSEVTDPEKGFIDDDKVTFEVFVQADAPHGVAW
As to B1, the Kd worked out at 3.45 µM.

Molecule EQGPADDPGEGPSTG [EBNA1^435–449 peptide] registered a Kd of 0.48 µM.

Molecule B2 registered a Kd of 4.03 µM.

For the molecule DLVQELQEEKPSSSHL (peptide, UniProt Q00987 137-152, looked up) [MDM2^137–152 peptide], the Ka is 91000 M⁻¹ and binding was characterised by a dissociation constant (Kd) of 11.1 µM.

The molecule B3 came in with a Kd of 0.54 µM.

B4 came in with a Kd of 0.076 µM.

The Kd is the free concentration of one partner at which half of the binding sites on the other are occupied at equilibrium, for simple one-to-one binding. A low value points to higher affinity.

For the origin of these results see publication PMC3589550 (Nature structural & molecular biology, 2011).
